# Results published in US11530240B2, “Catheter injectable cyclic peptide pro-gelators for myocardial tissue engineering” (The Regents of the University of California, priority 2017, dated 2022).
# Bridges are numbered along the chain shown (N, C = ends). Where no end group is shown, it is not given here. rhodamine = 5(6)-carboxytetramethylrhodamine label attached at the N-terminus
# Assays:
# [1] = Viscoelastic measurements of functionalized SAP hydrogels (gel capacity); format: physicochemical; conditions: 15 mg/mL in 1×DPBS, 2.5 rad/s
# Description: (§1) Rheological characterization. All peptide samples were prepared at 10 mM peptide, except for those used to assess the effect of SAP functionalization with respect to weight (15 mg/mL). Viscous and viscoelastic properties were assessed using a stress-controlled rheometer (TA Instruments AR-02) equipped with a Peltier plate to control temperature and a 20 mm diameter parallel plate geometry. Unless otherwise stated all measurements were taken at an angular frequency of 2.5 rad s^−1, strain of 0.5%, and temperature of 37° C. Measurements were performed with a gap height of 1000 μm and repeated three times (except for step-strain tests) to ensure reproducibility. To prevent water evaporation, mineral oil was wrapped around the edge of the geometry at the air-sample interface. For viscoelastic measurements the apparatus was used in oscillatory mode. […] The dynamic moduli of the hydrogels were measured as a function of frequency in the range 0_25-100 rad s^−1 at a strain of 0.5%. Continuous step-strain oscillations were used to monitor hydrogel healing through disruption (3 min, 100% strain) and recovery (15 min. 0.5% strain) cycles (n=3). Temperature sweeps were measured by increasing the apparatus temperatures from 21-40° C. at a ramp rate of 0.5° C./min. […] The viscosity of the samples was measured as a function of shear rate in the range 0.1-10 s^−1 (5% tolerance.
# Thermolysin [2] = molecular target: T1, Thermolysin (Bacillus thermoproteolyticus, UniProt P00800); assay: Time course rheological analysis of bulk gelation after thermolysin addition; format: physicochemical; parameters: purchased Promega V400A; conditions: 10 mM in 1×DPBS, thermolysin 1:4500 added at t=40 min, 37° C.
# T1 sequence (P00800 233-548): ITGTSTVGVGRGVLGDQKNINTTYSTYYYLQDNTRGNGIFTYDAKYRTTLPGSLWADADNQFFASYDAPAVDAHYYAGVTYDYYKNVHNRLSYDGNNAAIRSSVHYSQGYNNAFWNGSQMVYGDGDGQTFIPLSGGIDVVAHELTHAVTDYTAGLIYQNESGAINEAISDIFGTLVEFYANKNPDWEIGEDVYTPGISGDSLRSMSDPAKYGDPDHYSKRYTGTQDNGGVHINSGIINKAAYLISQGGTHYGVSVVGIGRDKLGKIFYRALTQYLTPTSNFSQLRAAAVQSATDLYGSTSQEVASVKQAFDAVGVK
# Description: as §1
# Thermolysin [3] = molecular target: T1, Thermolysin; conditions: 1:4500 enzyme/substrate
# Description: General information. […] Thermolysin (V400A) was acquired from Promega, as a lyophilized powder.
# In vitro enzyme cleavage of cyclic peptide progelator. Unless otherwise stated, enzyme cleavage experiments were performed on progelator at a final concentration of 500 μM in 1× enzyme cleavage buffers. […] Thermolysin cleavages were performed at 1:4500 enzyme/substrate molar ratio in 1× buffer (1×DPBS, pH 7.4) for 15 min. […] Control samples utilized denatured enzymes under the same conditions. […] Thermolysin was inactivated by incubation with 10% (v/v) EDTA (0.5 M, pH 8.0)
# [4] = molecular target: T2, MMP-9 (recombinant human catalytic domain) (Homo sapiens, UniProt P14780); assay: In vitro enzyme cleavage of cyclic progelator by MMP-9; format: biochemical; conditions: 1:1000 enzyme/substrate, 5 hr; denatured enzyme elicited no response
# T2 construct: MMP-9 (recombinant human catalytic domain); purchased Enzo Life Sciences BML-SEro360
# T2 sequence (P14780 107-444 limits assumed): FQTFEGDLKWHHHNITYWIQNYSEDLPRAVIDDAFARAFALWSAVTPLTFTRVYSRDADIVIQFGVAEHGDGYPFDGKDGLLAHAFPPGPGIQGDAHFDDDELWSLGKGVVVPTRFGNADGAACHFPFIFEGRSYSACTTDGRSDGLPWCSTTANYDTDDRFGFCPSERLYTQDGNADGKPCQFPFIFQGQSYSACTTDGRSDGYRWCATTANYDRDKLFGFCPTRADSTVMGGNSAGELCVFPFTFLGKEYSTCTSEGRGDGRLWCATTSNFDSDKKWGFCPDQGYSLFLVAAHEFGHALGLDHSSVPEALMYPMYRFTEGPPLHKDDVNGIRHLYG
# Excerpt: (§2) Transmission electron microscopy (TEM).
# (§3) In vitro enzyme cleavage of cyclic peptide progelator. […] Control samples utilized denatured enzymes under the same conditions.
# [5] = molecular target: T3, Porcine pancreatic elastase (Sus scrofa, UniProt P00772); assay: In vitro enzyme cleavage of cyclic progelator by elastase; format: biochemical; conditions: 1:250 enzyme/substrate, 5 hr; denatured enzyme elicited no response
# T3 construct: purchased EMD Millipore 3246821000U
# T3 sequence (P00772 27-266): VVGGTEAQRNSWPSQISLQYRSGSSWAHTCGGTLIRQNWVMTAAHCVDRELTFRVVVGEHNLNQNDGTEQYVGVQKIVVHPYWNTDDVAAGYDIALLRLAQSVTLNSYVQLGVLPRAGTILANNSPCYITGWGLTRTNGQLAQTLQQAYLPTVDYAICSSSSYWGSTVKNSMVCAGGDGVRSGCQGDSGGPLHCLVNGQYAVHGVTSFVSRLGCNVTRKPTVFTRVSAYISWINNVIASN
# Excerpt: as §2, §3
# red blood cells (RBCs) = assay: Hemolysis of red blood cells (RBCs); format: cell-based, human; conditions: positive (normalization) control 1% Triton X-100; isolated RBCs, 1 hr incubation; n=4
# Description: (§4) Hemocompatibility analysis.
# Hemolysis assay. Acute toxicity of cyclic peptide progelator was measured with a RBC hemolysis assay specific to biomacromolecular drug analysis, as previously described.^73 Averages (n=4) and standard error of the mean (SEM) for absorbance measurements (at 540 nm) were plotted.
# whole human blood [6] = assay: Whole blood hemostasis kinetics (non-activated whole blood clotting assay); conditions: positive controls; recalcified whole human blood
# Description: as §4
# Whole blood hemostasis kinetics. Changes to time-dependent hemostasis were monitored using a non-activated whole blood clotting assay.^72 Briefly, 100 μL of citrated whole human was mixed with 10 μL of peptide or collagen stock (11.5× final blood concentration) and 5 μL of CaCl2 (230 mM). Collagen (0.095 mg/mL) and glass coverslips were used as positive controls to increase clotting rates from an additive and contact initiated perspective, respectively. […] Aliquots (100 μL) were transferred to a 12-well TCP, covered, and incubated at r.t. for 5 min, 15 min, 30 min, and 45 min. Each sample was prepared in triplicate. At the end of each time point, RBCs not caught in the thrombus were lysed by gently adding 3 mL distilled H2O and incubating for 5 min. Each well was sampled (200 μL), taking care not to disturb the clot, and transferred to a 96 well plate for analysis. Released hemoglobin from lysis was detected by measuring the absorbance at 405 nm (height 4.0 mm, 100 flashes) using a plate reader. Extent of clotting is inversely proportional to measured absorbance. Averages (n=3) and standard error of the mean (SEM) are plotted.
# whole human blood [7] = assay: Activated clotting times (ACT) with whole human blood; conditions: positive control, collagen 0.095 mg/mL
# Description: as §4
# Activated clotting times (ACT) with whole human blood. A Hemochron 801 instrument calibrated with an electronic system verification (ESV) device was used to measure activated clotting time (ACT) of whole human blood. Activated clotting times (ACT) were determined using recalcified citrated whole human blood to minimize variability in starting time points for clotting in all assays.^71 To each Hemochron P214 tube with glass beads was added 4 μL CaCl2 (1.1 M) and 36 μL peptide stock or additive (12.2× final blood concentration). Samples were mixed thoroughly for 30 s to soak the glass beads and incubated 30 s at 37° C. Citrated whole human blood (400 μL) was then added (t=0 s), mixed by hand for 10 s, and added to the instrument. Time points at which the magnet was displaced by clot formation were recorded by the instrument. Collagen (0.095 mg/mL) was used as a positive control to […] clotting time. Vehicle (1×DPBS) served as a standard for blood without additive. Samples without calcium, serving as the negative control, exceeded instrument maximum time range (>1500 sec). Each experiment was performed n=6 times with averages and standard error of the mean (SEM) plotted.
substance,measurement,setting,value
"C(KFDF)3PLGLAGC (SEQ ID NO: 7) (CKFDFKFDFKFDFPLGLAGC) [KFDF (SEQ ID NO:1)Linear, modified linear SAP primed for cyclization, no fluorescent label]",gelling capacity (tanδ<1) and strain tolerance vs unmodified SAP,[1],no significant disruptive effects to gelling capacity
"C(KLDL)3PLGLAGC (SEQ ID NO: 6) (CKLDLKLDLKLDLPLGLAGC) [KLDL (SEQ ID NO:5)Linear, modified linear SAP primed for cyclization, no fluorescent label]",gelling capacity (tanδ<1) and strain tolerance vs unmodified SAP,[1],no significant disruptive effects to gelling capacity
"CKLDLKLDLKLDLPLGLAGC (SEQ ID NO:6) (disulfide 1-20) [KLDL (SEQ ID NO:5)Cyclic, unlabeled cyclized enzyme-responsive progelator]","time at which steady state of shear moduli (G′, G″) was reached",Thermolysin [2],200 min
Rho-KFDF (SEQ ID NO:1)Cyclic: rhodamine labeled cyclized KFDF progelator (SEQ ID NO:7) (rhodamine-CKFDFKFDFKFDFPLGLAGC; disulfide 1-20),response to thermolysin incubation (TEM),Thermolysin [3],induced fiber formation by TEM
same,"response to active MMP-9 cleavage (visual, TEM)",[4],induced visible aggregation in the reaction vial and entangled fibrous meshes by TEM
same,"response to active elastase cleavage (visual, TEM)",[5],induced visible aggregation in the reaction vial and entangled fibrous meshes by TEM
Rho-KLDL (SEQ ID NO:5)Cyclic: rhodamine labeled cyclized KLDL progelator (SEQ ID NO:6) (rhodamine-CKLDLKLDLKLDLPLGLAGC; disulfide 1-20),response to thermolysin incubation (TEM),Thermolysin [3],induced fiber formation by TEM
same,"response to active MMP-9 cleavage (visual, TEM)",[4],induced visible aggregation in the reaction vial and entangled fibrous meshes by TEM
same,"response to active elastase cleavage (visual, TEM)",[5],induced visible aggregation in the reaction vial and entangled fibrous meshes by TEM
Triton X-100 [1% Triton X-100],% Hemolysis,red blood cells (RBCs),100.00%
collagen [reference compound],clot rate (hemostasis kinetics),whole human blood [6],increased the clot rate
same,effect on clot time vs vehicle (ACT),whole human blood [7],significant clot time reduction
same,"Activated clotting time (ACT), Average Time","whole human blood [7]; whole human blood, n=6",150 s
